Laboratory results as given in patent US7125850B2, “Methods of identifying inhibitors of GADD45 polypeptide activity, and inhibitors of such activity” (The United States of America as represented by the …, priority 1999, dated 2006).

B1: NAP-1: negative control protein of similar size and charge as GADD45 (protein, UniProt P55209 2-388, looked up)
Nucleosome assembly protein …: ADIDNKEQSELDQDLDDVEEVEEEETGEETKLKARQLTVQMMQNPQILAALQERLDGLVETPTGYIESLPRVVKRRVNALKNLQVKCAQIEAKFYEEVHDLERKYAVLYQPLFDKRFEIINAIYEPTEEECEWKPDEEDEISEELKEKAKIEDEKKDEEKEDPKGIPEFWLTVFKNVDLLSDMVQEHDEPILKHLKDIKVKFSDAGQPMSFVLEFHFEPNEYFTNEVLTKTYRMRSEPDDSDPFSFDGPEIMGCTGCQIDWKKGKNVTLKTIKKKQKHKGRGTVRTVTKTVSNDSFFNFFAPPEVPESGDLDDDAEAILAADFEIGHFLRERIIPRSVLYFTGEAIEDDDDDYDEEGEEADEEGEEEGDEENDPDYDPKKDQNPAEC
B2: GADD45 Δ72–166: truncated rGADD45 containing the first 71 amino acid residues (protein, listed as Homo sapiens)
chain: MTLEEFSAGEQKTERMDKVGDALEEVLSKALSQRTITVGVYEAAKLLNVDPDNVVLCLLAADEDDDRDVAL
B3: GADD45 Δ125–166: truncated rGADD45 containing the first 124 amino acid residues (protein, listed as Homo sapiens)
chain: MTLEEFSAGEQKTERMDKVGDALEEVLSKALSQRTITVGVYEAAKLLNVDPDNVVLCLLAADEDDDRDVALQIHFTLIQAFCCENDINILRVSNPGRLAELLLLETDAGPAASEGAEQPPDLHC
B4: rGADD45: full length recombinant human GADD45 polypeptide (SEQ ID NO:2), bacterially expressed, histidine tag removed (protein, listed as Rattus norvegicus)
chain: MTLEEFSAAEQKIERMDTVGDALEEVLSKARSQRTITVGVYEAAKLLNVDPDNVVLCLLAADEDDDRDVALQIHFTLIRAFCCENDINILRVSNPGRLAELLLLENDKSPAESGGLAQTPDLHCVLVTNPHSSQWKDPALSQLICFCRESRYMDQWVPVINLPER
modifications: rat growth arrest and DNA-damage-inducible protein (rGADD45)

What was measured:
[1] = biological target: T1, cellular Cdc2 (Homo sapiens, UniProt P06493); assay: GST pull-down from RKO cell lysate, immunoblot for Cdc2; format: binding; settings: 100 ng protein, 1 mg RKO cellular protein
T1 construct: GST-GADD45 fusion protein were incubated with one mg of RKO cellular protein; endogenous in cells; host or cells: RKO (human colon carcinoma)
Description: For these experiments, a recombinant glutathione-S-transferase (GST)/GADD45 fusion protein was constructed. The GADD45 insert was PCR amplified from pHul45B2 using the following primers: (SEQ ID NO:3) 5′[…] 3′ and (SEQ ID NO:4) 5′[…] 3′. Products were cloned into a pcrII vector using the TA cloning kit (Invitrogen, San Diego, Calif.). A representative clone was confirmed by sequencing. The selected insert was removed by XhoI and NotI digestion, gel purified using the Wizard DNA Purification Kit (Promega, Madison, Wis.), and ligated into the XhoI/ NotI digested pGEX4T vector (Pharmacia, Piscataway, N.J.). GST-GADD45 fusion protein induction was prepared from freshly transformed BL21 bacterial cells (Novagen). 150 ml of overnight culture was diluted into 1L of LB with ampicillin and grown at 37° C. to late growth phase (OD600 was approximately 0.8). […]
To detect binding of cellular Cdc2 to GST-tagged GADD45, 100 ng of GST or GST-GADD45 fusion protein were incubated with one mg of RKO cellular protein for 4 hr at […]. […] Antibody was detected by a chemiluminescence system in accordance with the instructions of the manufacturer (Amersham, Buckinghamshire, England)
GST-GADD45 fusion protein or GST alone, which were linked to Sepharose beads, were incubated with cellular lysates, isolated, and analyzed by immunoblotting, as described above.

[2] = biological target: T2, Cdc2/Cyclin B1 complex (Homo sapiens, UniProt P06493); assay: Histone H1 kinase assay with purified Cdc2-Cyclin B1 complexes; format: biochemical; parameters: purchased Upstate Biotechnology, Lake Placid, N.Y; settings: for inhibition of histone H1 kinase activity of purified Cdc2/Cyclin B1 complex: 100 ng complex, varying amounts of protein up to 500 ng
Protocol: In one experiment, 100 ng purified Cdc2-cyclin B1 complexes (Upstate Biotechnology, Lake Placid, N.Y.) were incubated with varying amounts of full length rGADD45 or negative control (NAP 1, Tjandra (1998) Curr. Biol. 8:991–1000; Fujii-Nakata (1992) J. Biol. Chem. 267:20980–20986) polypeptides. For full length rGADD45: 0, 10, 20, 50, 100, 200, and 500 ng were used. For the control (NAP1): 0, 100, 200, and 500 ng were used.
Histone H1 kinase assays were then performed. Briefly, purified Cdc2-Cyclin B1 complexes (Upstate Biotechnology, Lake Placid, N.Y.) were incubated with the indicated amounts of rGADD45 or NAP1 proteins for 5 minutes. Histone H1 kinase assays were then performed in the presence of […] of histone H1 (Upstate, Lake Placid, N.Y.), 15 mM MgCl2, 7 mM β-glycerol phosphate, 1.5 mM EGTA, 0.25 mM sodium orthvanadate, 0.25 mM DTT and […] of [g-32P]ATP in 25 μl. After 15 min at 37° C., the reactions were mixed with an equal amount of standard 2× SDS protein denaturation loading buffer, size-separated on a 12% SDS-PAGE gel, and analyzed by autoradiography.
rGADD45 proteins were prepared as described by Carrier (1994) supra. The rGADD45 proteins that were manufactured included, in addition to the full-length polypeptide, truncated forms containing the first 124 amino acid residues (designated “GADD45 Δ125–166”) or the first 71 amino acid residues (designated “GADD45 Δ72–166”) (see sequence and residue notation of SEQ ID NO:2).
For the histone assays comparing the inhibitory activity of full length and truncated GADD45 constructs, instead of loading samples onto the gel for electrophoretic analysis, […] aliquots were spotted on phosphocellulose paper and then washed three times with 0.75% phosphoric acid. After an acetone rinse, the radioactivity was measured by scintillation counting. The results are the average of three separate experiments.
Target sequence in this assay (P06493 whole entry, species assumed, one chain of several): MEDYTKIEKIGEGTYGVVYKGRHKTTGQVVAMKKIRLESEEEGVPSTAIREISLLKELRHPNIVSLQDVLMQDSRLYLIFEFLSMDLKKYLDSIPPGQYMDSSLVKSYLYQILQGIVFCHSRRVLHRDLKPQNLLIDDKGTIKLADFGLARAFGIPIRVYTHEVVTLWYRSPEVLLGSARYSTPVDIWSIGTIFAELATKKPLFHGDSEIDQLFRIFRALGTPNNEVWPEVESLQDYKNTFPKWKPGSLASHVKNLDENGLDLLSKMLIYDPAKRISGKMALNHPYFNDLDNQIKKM

[3] = biological target: T2, Cdc2/Cyclin B1 complex; assay: Wash off assay: dissociation of immunoprecipitated Cdc2/Cyclin B1 complexes; format: biochemical; parameters: One mg of cellular protein was immunoprecipitated with anti-Cyclin B1 antibody and protein A agarose beads; endogenous in cells; host or cells: RKO (human colon carcinoma); settings: 0-500 ng protein, 15 min at 25 C
Protocol: Since GADD45 inhibited Cdc2/Cyclin B1 activity, but only associated with Cdc2, the possibility was considered that GADD45 acts by dissociating this complex. To test this, anti-Cyclin B1 antibody was used to precipitate cellular Cdc2/cyclin B1 complexes (as above). A “wash off assay” was then carried out in the presence of GADD45. Briefly, RKO cellular protein was immunoprecipitated with anti-Cyclin B1 antibody. The immunoprecipitates were washed 3 times with lysis buffer and twice with 10 mM Tris-HCl (pH 7.5), 10 mM Mg Cl2. Samples were then suspended in […] of 10 mM Tris-HCl (pH 7.5), 10 mM MgCl2. Various amounts of rGADD45 (0, 50, 100, 200, 500 ng) or NAP1 (0, 200, 500 ng) was added to the Cdc2/Cyclin B1 immunocomplexes and incubated for 15 min at 25° C. Following incubation, immunoprecipitates were washed twice with lysis buffer, loaded onto SDS-PAGE gel for electrophoresis, and the membrane was immunoblotted with monoclonal Cdc2 antibody for the detection of Cdc2 protein. Prior to the final immunoprecipitation, an aliquot of the solution was analyzed by immunoblotting with an anti-Cyclin B1 antibody to confirm uniform loading. […] To confirm uniform levels of Cyclin B1, the amount of Cyclin B1 was measured by immunoblotting.
Target sequence in this assay (P06493 whole entry, one chain of several): as the sequence (P06493 whole entry, species assumed, one chain of several) above

[4] = biological target: T3, Cdc2/Cyclin B1 complexes (Homo sapiens, UniProt P06493); assay: ELISA binding of rGADD45 proteins to purified Cdc2/Cyclin B1; settings: 40 ng protein; for binding to Cdc2/Cyclin B1 in ELISA: 100 ng complex coated
T3 construct: purchased Upstate Biotechnology, Lake Placid, N.Y
Protocol: Immulon II immunoabsorption plates (Dynatech) were coated with 100 ng of Cdc2/Cyclin B1 complexes (Upstate Biotechnology, Lake Placid, N.Y.) in PBS and incubated overnight at 4° C. After rinsing with PBST (PBS with 0.05% Tween-20) and blocking in 5% nonfat milk in PBST, 40 ng of either full length or truncated (both deletion constructs, as described above) rGADD45 protein were added. Following incubation for one hour at room temperature, the plates were washed and an anti-GADD45 antibody (Zymed, San Francisco, Calif.) was added at a 1:1000 dilution in PBST with 0.5% milk (PBSTM). After 1 hr at 25° C., the plates were washed, and HRP-anti-rabbit antibody diluted at 1:1000 in PBS™ was added before final washes and development using the 1-step TMB Solution (Pierce, Rockford, Ill.). Development was halted by the addition of 50 μl of 1M H2SO4, and optical density was measured using a platereader.

[5] = biological target: Cdk2/Cyclin E (Homo sapiens, UniProt P24941); assay: Cdk2/Cyclin E histone H1 kinase assay; format: biochemical; settings: up to 3600 ng of full length rGADD45
[6] = biological target: T2, Cdc2/Cyclin B1 complex; assay: Histone H1 kinase assay with Cdc2/cyclin B1 complex immunoprecipitated from RKO cell lysate; format: biochemical; parameters: One mg of cellular protein was immunoprecipitated with anti-Cyclin B1 antibody and protein A agarose beads; endogenous in cells; host or cells: RKO (human colon carcinoma); settings: RKO lysate immunoprecipitate
Protocol: A monoclonal antibody against cyclin B1 was next used to immunoprecipitate Cdc2/cyclin B1 complex from a lysate of human cells. Antibodies against human Cdc2, c-Myc, and NAP-1 were obtained from Santa Cruz Biotechnology, Santa Cruz, Calif. […] The human colon carcinoma line RKO was grown in modified Ham's F12 medium supplemented with 10% fetal bovine serum.
For immunoprecipitation, exponentially growing RKO cells were lysed on ice for 30 min in lysis buffer consisting of 50 mM Tris-HCl (pH 7.5), 120 mM NaCl, 1% NP-40, […], […] and […] of phenylmethylsulfony fluoride. One mg of cellular protein was immunoprecipitated with anti-Cyclin B1 antibody and protein A agarose beads for 4 hr at 4° C. The immunoprecipitates were washed three times with lysis buffer and then loaded onto a SDS-PAGE gel for immunoblot analysis. The presence of Cdc2/Cyclin B1 was confirmed by immunoblotting.
In contrast, rGADD45 had no effect on Cdk2/Cyclin E histone H1 kinase activity. […]
Target sequence in this assay (P06493 whole entry, one chain of several): as the sequence (P06493 whole entry, species assumed, one chain of several) above

T3 sequence (P06493 whole entry, species assumed, one chain of several): as above
T1 sequence (P06493 whole entry, the tested form may be a part): as the sequence (P06493 whole entry, species assumed, one chain of several) above

| Molecule | inhibition of histone H1 kinase activity of purified Cdc2/Cyclin B1 complex [2] | Cdc2 level remaining in Cyclin B1 immune complexes (dissociation of complex) [3] | binding to Cdc2/Cyclin B1 in ELISA [4] | also measured |
| --- | --- | --- | --- | --- |
| GST: glutathione-S-transferase alone, linked to Sepharose beads, control [reference compound] |  |  |  | association with cellular Cdc2 [1]: no Cdc2 was detected |
| B1 | no appreciable effect | no effect |  |  |
| B2 | failed to inhibit |  | No appreciable binding |  |
| B3 | able to inhibit |  | significant binding over background level | binding relative to full-length rGADD45 protein [4]: 77% |
| B4 | strongly inhibited | did reduce the Cdc2 level | significant binding over background level | effect on Cdk2/Cyclin E histone H1 kinase activity [5]: no effect; inhibition of enzymatic activity of isolated (immunoprecipitated) Cdc2/cyclin B1 complex [6]: progressive inhibition; Cdc2/Cyclin B1 histone kinase activity, % of control ([2]; 50 ng protein): less than 40%; inhibition of histone phosphorylation by Cdc2/Cyclin B1 ([2]; larger amounts than 50 ng): strong inhibition |
